One experiment concerns the target T1, hSA1 (human (endogenous in HeLa), UniProt Q8WVM7 1-1258).
T1 sequence: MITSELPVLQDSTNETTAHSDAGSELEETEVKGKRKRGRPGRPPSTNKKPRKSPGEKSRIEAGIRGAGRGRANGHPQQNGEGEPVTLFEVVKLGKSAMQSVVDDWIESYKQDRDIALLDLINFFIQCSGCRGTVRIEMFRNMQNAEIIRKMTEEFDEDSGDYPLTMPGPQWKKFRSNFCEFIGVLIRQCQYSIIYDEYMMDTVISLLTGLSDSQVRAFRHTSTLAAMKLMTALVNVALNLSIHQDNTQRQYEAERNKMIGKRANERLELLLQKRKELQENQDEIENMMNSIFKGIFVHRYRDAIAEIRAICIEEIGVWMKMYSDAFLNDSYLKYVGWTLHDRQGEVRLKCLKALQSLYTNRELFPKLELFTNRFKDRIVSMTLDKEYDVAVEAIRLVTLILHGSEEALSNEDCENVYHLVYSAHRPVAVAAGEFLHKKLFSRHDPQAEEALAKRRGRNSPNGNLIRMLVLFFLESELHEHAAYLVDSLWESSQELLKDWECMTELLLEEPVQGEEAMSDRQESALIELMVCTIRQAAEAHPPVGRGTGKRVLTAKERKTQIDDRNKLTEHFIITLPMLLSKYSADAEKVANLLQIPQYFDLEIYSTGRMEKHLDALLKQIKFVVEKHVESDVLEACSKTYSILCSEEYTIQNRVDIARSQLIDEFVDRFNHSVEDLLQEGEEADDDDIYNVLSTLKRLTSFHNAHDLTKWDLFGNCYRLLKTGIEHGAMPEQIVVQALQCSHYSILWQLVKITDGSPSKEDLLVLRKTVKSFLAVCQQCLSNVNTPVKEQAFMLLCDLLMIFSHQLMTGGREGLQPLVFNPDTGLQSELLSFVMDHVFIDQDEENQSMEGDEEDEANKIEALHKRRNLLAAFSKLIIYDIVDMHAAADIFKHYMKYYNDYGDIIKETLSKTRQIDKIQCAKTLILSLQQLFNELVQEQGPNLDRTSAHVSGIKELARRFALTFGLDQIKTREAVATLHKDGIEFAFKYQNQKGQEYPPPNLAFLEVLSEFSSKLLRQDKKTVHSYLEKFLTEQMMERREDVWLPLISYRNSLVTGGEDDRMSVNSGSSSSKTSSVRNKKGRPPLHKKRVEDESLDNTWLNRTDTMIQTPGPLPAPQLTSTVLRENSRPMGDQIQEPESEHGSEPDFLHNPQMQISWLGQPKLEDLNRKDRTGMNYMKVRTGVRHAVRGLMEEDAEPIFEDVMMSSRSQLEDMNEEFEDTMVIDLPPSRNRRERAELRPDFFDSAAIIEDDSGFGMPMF
Nature of the experiment: co-IP.

A further experiment has as its target T2, hSA2 (human (endogenous in HeLa), UniProt Q8N3U4 1-1231).
T2 sequence: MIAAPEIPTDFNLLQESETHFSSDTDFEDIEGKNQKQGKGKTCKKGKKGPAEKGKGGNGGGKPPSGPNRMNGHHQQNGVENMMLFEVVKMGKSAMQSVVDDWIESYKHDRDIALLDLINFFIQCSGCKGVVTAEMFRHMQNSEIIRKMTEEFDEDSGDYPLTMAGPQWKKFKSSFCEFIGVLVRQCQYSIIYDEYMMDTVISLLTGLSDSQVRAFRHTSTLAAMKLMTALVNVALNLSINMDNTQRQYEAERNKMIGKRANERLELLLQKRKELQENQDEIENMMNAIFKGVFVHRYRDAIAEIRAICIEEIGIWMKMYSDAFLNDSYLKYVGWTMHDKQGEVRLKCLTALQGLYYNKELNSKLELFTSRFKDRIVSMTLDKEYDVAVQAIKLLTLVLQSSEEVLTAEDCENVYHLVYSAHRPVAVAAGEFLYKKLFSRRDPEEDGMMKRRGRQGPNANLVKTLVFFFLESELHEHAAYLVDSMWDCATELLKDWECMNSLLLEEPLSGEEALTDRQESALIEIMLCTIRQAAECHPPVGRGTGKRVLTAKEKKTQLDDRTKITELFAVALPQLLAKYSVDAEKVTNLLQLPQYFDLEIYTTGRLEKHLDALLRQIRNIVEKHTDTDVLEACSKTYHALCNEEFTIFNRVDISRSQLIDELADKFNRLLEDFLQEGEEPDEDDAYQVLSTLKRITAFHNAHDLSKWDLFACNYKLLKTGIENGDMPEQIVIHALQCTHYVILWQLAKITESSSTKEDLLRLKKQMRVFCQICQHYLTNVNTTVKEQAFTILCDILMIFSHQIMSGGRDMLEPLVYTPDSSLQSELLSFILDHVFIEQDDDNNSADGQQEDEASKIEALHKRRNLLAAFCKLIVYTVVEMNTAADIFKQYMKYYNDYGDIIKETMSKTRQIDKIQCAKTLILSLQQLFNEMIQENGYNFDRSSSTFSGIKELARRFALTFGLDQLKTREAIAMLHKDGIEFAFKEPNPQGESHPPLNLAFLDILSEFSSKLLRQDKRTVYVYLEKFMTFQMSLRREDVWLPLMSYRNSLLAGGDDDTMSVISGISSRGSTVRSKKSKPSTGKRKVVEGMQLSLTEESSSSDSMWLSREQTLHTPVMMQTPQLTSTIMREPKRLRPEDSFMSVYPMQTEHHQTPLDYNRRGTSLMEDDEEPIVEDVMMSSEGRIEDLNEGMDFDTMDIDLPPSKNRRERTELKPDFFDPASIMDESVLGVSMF
Kind of experiment: co-IP.

B1: hSMC3 (natural protein)
chain: MYIKQVIIQGFRSYRDQTIVDPFSSKHNVIVGRNGSGKSNFFYAIQFVLSDEFSHLRPEQRLALLHEGTGPRVISAFVEIIFDNSDNRLPIDKEEVSLRRVIGAKKDQYFLDKKMVTKNDVMNLLESAGFSRSNPYYIVKQGKINQMATAPDSQRLKLLREVAGTRVYDERKEESISLMKETEGKREKINELLKYIEERLHTLEEEKEELAQYQKWDKMRRALEYTIYNQELNETRAKLDELSAKRETSGEKSRQLRDAQQDARDKMEDIERQVRELKTKISAMKEEKEQLSAERQEQIKQRTKLELKAKDLQDELAGNSEQRKRLLKERQKLLEKIEEKQKELAETEPKFNSVKEKEERGIARLAQATQERTDLYAKQGRGSQFTSKEERDKWIKKELKSLDQAINDKKRQIAAIHKDLEDTEANKEKNLEQYNKLDQDLNEVKARVEELDRKYYEVKNKKDELQSERNYLWREENAEQQALAAKREDLEKKQQLLRAATGKAILNGIDSINKVLDHFRRKGINQHVQNGYHGIVMNNFECEPAFYTCVEVTAGNRLFYHIVDSDEVSTKILMEFNKMNLPGEVTFLPLNKLDVRDTAYPETNDAIPMISKLRYNPRFDKAFKHVFGKTLICRSMEVSTQLARAFTMDCITLEGDQVSHRGALTGGYYDTRKSRLELQKDVRKAEEELGELEAKLNENLRRNIERINNEIDQLMNQMQQIETQQRKFKASRDSILSEMKMLKEKRQQSEKTFMPKQRSLQSLEASLHAMESTRESLKAELGTDLLSQLSLEDQKRVDALNDEIRQLQQENRQLLNERIKLEGIITRVETYLNENLRKRLDQVEQELNELRETEGGTVLTATTSELEAINKRVKDTMARSEDLDNSIDKTEAGIKELQKSMERWKNMEKEHMDAINHDTKELEKMTNRQGMLLKKKEECMKKIRELGSLPQEAFEKYQTLSLKQLFRKLEQCNTELKKYSHVNKKALDQFVNFSEQKEKLIKRQEELDRGYKSIMELMNVLELRKYEAIQLTFKQVSKNFSEVFQKLVPGGKATLVMKKGDVEGSQSQDEGEGSGESERGSGSQSSVPSVDQFTGVGIRVSFTGKQGEMREMQQLSGGQKSLVALALIFAIQKCDPAPFYLFDEIDQALDAQHRKAVSDMIMELAVHAQFITTTFRPELLESADKFYGVKFRNKVSHIDVITAEMAKDFVEDDTTHG
For the molecule B1, the “percent removed from the extract by anti-XSA1” value (“percent removed … by anti-XSA1” below) in the experiment with hSA1 was ~25%. Further, the “percent removed from the extract by anti-XSA2” value (“percent removed … by anti-XSA2” below) with hSA2 was ~75%.

B2: hRAD21 (natural protein)
chain: MFYAHFVLSKRGPLAKIWLAAHWDKKLTKAHVFECNLESSVESIISPKVKMALRTSGHLLLGVVRIYHRKAKYLLADCNEAFIKIKMAFRPGVVDLPEENREAAYNAITLPEEFHDFDQPLPDLDDIDVAQQFSLNQSRVEEITMREEVGNISILQENDFGDFGMDDREIMREGSAFEDDDMLVSTTTSNLLLESEQSTSNLNEKINHLEYEDQYKDDNFGEGNDGGILDDKLISNNDGGIFDDPPALSEAGVMLPEQPAHDDMDEDDNVSMGGPDSPDSVDPVEPMPTMTDQTTLVPNEEEAFALEPIDITVKETKAKRKRKLIVDSVKELDSKTIRAQLSDYSDIVTTLDLAPPTKKLMMWKETGGVEKLFSLPAQPLWNNRLLKLFTRCLTPLVPEDLRKRRKGGEADNLDEFLKEFENPEVPREDQQQQHQQRDVIDEPIIEEPSRLQESVMEASRTNIDESAMPPPPPQGVKRKAGQIDPEPVMPPQQVEQMEIPPVELPPEEPPNICQLIPELELLPEKEKEKEKEKEDDEEEEDEDASGGDQDQEERRWNKRTQQMLHGLQRALAKTGAESISLLELCRNTNRKQAAAKFYSFLVLKKQQAIELTQEEPYSDIIATPGPRFHII
Take B2: in the experiment with hSA1, the “percent removed … by anti-XSA1” value was ~25%. In the experiment with hSA2, the “percent removed … by anti-XSA2” value is ~75%.

B3: hSMC1 (natural protein)
chain: MGFLKLIEIENFKSYKGRQIIGPFQRFTAIIGPNGSGKSNLMDAISFVLGEKTSNLRVKTLRDLIHGAPVGKPAANRAFVSMVYSEEGAEDRTFARVIVGGSSEYKINNKVVQLHEYSEELEKLGILIKARNFLVFQGAVESIAMKNPKERTALFEEISRSGELAQEYDKRKKEMVKAEEDTQFNYHRKKNIAAERKEAKQEKEEADRYQRLKDEVVRAQVQLQLFKLYHNEVEIEKLNKELASKNKEIEKDKKRMDKVEDELKEKKKELGKMMREQQQIEKEIKEKDSELNQKRPQYIKAKENTSHKIKKLEAAKKSLQNAQKHYKKRKGDMDELEKEMLSVEKARQEFEERMEEESQSQGRDLTLEENQVKKYHRLKEEASKRAATLAQELEKFNRDQKADQDRLDLEERKKVETEAKIKQKLREIEENQKRIEKLEEYITTSKQSLEEQKKLEGELTEEVEMAKRRIDEINKELNQVMEQLGDARIDRQESSRQQRKAEIMESIKRLYPGSVYGRLIDLCQPTQKKYQIAVTKVLGKNMDAIIVDSEKTGRDCIQYIKEQRGEPETFLPLDYLEVKPTDEKLRELKGAKLVIDVIRYEPPHIKKALQYACGNALVCDNVEDARRIAFGGHQRHKTVALDGTLFQKSGVISGGASDLKAKARRWDEKAVDKLKEKKERLTEELKEQMKAKRKEAELRQVQSQAHGLQMRLKYSQSDLEQTKTRHLALNLQEKSKLESELANFGPRINDIKRIIQSREREMKDLKEKMNQVEDEVFEEFCREIGVRNIREFEEEKVKRQNEIAKKRLEFENQKTRLGIQLDFEKNQLKEDQDKVHMWEQTVKKDENEIEKLKKEEQRHMKIIDETMAQLQDLKNQHLAKKSEVNDKNHEMEEIRKKLGGANKEMTHLQKEVTAIETKLEQKRSDRHNLLQACKMQDIKLPLSKGTMDDISQEEGSSQGEDSVSGSQRISSIYAREALIEIDYGDLCEDLKDAQAEEEIKQEMNTLQQKLNEQQSVLQRIAAPNMKAMEKLESVRDKFQETSDEFEAARKRAKKAKQAFEQIKKERFDRFNACFESVATNIDEIYKALSRNSSAQAFLGPENPEEPYLDGINYNCVAPGKRFRPMDNLSGGEKTVAALALLFAIHSYKPAPFFVLDEIDAALDNTNIGKVANYIKEQSTCNFQAIVISLKEEFYTKAESLIGVYPEQGDCVISKVLTFDLTKYPDANPNPNEQ
B3: the “percent removed … by anti-XSA1” value with hSA1 is ~25%. Besides, the “percent removed … by anti-XSA2” value in the experiment with hSA2 was ~75%.

The values above are taken from PMC2175199 (The Journal of Cell Biology, 2000).
